Among the data in article PMC10155811 (2022) are Kd values, retold here.

The target of one test is BubR1-p. Briefly: ITC; doubly phosphorylated peptide KLpSPIIEDpSR.
The next test concerns the target BubR1. Briefly: ITC; unphosphorylated peptide ….
Test [1] deals with Bub1 peptides encompassing the putative PP2A-B56 binding motif (amino acids 654-FSPIQE-659) (human, UniProt O43683). Briefly: ITC; doubly phosphorylated Bub1 peptide KFpSPIQEKpSP.

B1: B56α (natural protein)
chain: not shown
As for B1, the Kd with BubR1-p was 0.12 µM; with BubR1, 4.6 µM; in test [1] it was 41 µM.
